Test system: T1, AcuI restriction endonuclease (recombinant, clone #288) V1M (Acinetobacter calcoaceticus SRW4)
T1 sequence: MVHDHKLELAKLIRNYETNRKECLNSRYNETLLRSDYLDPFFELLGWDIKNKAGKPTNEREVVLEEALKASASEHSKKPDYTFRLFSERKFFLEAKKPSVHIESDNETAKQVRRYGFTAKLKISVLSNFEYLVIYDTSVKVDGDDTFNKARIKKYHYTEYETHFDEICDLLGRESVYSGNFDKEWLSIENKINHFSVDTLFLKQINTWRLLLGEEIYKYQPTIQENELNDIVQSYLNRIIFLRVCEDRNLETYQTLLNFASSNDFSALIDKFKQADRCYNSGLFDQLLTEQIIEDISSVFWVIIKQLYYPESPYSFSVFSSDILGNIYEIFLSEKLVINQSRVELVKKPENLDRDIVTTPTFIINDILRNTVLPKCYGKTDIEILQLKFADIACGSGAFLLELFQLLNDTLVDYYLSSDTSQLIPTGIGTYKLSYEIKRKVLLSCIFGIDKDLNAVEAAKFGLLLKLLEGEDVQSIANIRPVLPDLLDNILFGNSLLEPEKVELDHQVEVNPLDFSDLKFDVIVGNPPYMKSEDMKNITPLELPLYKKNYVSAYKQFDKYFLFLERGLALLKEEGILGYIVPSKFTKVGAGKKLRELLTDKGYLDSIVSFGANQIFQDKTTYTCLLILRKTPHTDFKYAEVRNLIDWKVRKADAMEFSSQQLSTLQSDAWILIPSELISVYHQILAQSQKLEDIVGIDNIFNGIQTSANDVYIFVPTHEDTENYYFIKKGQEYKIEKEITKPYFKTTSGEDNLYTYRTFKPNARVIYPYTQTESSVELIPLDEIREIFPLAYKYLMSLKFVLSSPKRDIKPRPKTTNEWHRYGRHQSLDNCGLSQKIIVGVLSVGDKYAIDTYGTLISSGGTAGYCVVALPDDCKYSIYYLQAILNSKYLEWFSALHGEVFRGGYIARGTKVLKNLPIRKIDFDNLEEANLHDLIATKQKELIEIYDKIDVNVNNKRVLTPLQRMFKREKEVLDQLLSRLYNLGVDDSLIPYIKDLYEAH
Experiment: cleavage_in_vitro
Details: cell extract; lambda DNA substrate

lambda DNA gave an activity (units per gram wet cells) of 17400.

From US20040209257
